We go through 4 molecules from patent US20260250421A1 (BIOCYTOGEN PHARMACEUTICALS BEIJING, published 2026).

Assay in all cases: SPR Biacore 8K, Ab on Protein A chip
In general terms: Surface plasmon resonance follows binding to a sensor surface in real time, without labels.

Assay [1] deals with T1, His-tagged monkey TROP2 protein (cynomolgus monkey; Rhesus …, UniProt A0A5F8AGB8 27-274).
T1 construct: also called cTROP2-His; ACRO Biosystems Cat# TR2-R52H3
T1 sequence: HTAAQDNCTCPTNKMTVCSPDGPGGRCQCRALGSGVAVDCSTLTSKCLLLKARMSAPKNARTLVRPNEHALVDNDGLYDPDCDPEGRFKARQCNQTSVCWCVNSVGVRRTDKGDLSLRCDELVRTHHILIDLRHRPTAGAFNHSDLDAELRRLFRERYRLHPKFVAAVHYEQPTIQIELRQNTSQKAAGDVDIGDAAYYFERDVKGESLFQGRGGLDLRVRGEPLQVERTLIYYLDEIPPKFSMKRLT

Assay [2] addresses T2, His-tagged cynomolgus monkey PTK7 protein (cynomolgus monkey, UniProt A0A2K5VNI5 39-712).
T2 construct: Bought protein; also called cPTK7-His; ACRO Biosystems Cat# PT7-C52H3; not shown: His tag
T2 sequence: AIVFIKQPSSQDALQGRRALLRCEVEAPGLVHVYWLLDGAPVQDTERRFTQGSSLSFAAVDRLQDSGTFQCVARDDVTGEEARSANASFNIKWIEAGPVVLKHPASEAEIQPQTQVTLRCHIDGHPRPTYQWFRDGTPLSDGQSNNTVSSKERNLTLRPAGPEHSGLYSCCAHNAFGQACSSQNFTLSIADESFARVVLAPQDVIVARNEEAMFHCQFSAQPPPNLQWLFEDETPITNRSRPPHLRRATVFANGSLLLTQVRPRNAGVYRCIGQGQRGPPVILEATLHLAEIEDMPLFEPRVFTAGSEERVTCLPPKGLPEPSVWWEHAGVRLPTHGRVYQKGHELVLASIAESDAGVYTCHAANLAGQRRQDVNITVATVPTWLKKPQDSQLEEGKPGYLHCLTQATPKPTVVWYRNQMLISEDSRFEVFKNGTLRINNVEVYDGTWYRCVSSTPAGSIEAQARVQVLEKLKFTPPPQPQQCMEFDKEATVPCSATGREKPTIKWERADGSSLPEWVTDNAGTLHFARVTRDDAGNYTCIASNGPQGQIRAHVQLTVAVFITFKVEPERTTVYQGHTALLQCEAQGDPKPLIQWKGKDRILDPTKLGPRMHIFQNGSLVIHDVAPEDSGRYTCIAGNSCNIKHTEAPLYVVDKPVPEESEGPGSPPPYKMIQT
The protocol: (§1) The affinity of the anti-PTK7/TROP2 bispecific antibodies to His-tagged human TROP2 protein (hTROP2-His, ACRO Biosystems Inc., Cat #: TR2-H5223), His-tagged […] monkey TROP2 protein (cTROP2-His, ACRO Biosystems Inc., Cat #: Cat: TR2-R52H3), His-tagged dog TROP2 protein (dTROP2-His, ACRO Biosystems Inc., Cat #: TR2-C52H4), hPTK7-His, cPTK7-His and dPTK7-His were measured by surface plasmon resonance (SPR) using Biacore™ (Biacore, INC, Piscataway N.J.) 8K biosensor equipped with pre-immobilized Protein A sensor chips.

The target in assay [3] is T3, His-tagged dog PTK7 protein (dog, UniProt Q13308 31-703 (human entry)).
T3 construct: also called dPTK7-His
T3 chain: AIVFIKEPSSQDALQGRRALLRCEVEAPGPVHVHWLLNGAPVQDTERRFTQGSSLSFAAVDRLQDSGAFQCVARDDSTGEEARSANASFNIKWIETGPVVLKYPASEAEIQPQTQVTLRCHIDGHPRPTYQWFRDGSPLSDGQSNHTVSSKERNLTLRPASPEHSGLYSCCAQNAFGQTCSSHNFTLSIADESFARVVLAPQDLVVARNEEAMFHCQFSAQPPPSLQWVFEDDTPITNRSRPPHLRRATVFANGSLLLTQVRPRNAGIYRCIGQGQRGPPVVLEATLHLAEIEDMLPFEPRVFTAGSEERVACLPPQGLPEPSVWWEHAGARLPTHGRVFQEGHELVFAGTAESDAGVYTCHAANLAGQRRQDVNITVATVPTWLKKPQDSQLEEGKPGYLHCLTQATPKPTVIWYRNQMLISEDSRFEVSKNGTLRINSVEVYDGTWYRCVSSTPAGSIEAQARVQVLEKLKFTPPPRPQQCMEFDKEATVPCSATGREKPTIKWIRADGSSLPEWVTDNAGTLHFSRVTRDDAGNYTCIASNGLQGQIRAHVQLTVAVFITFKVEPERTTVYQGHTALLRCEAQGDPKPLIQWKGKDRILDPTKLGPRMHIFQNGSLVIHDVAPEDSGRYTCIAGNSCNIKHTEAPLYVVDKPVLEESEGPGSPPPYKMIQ
The protocol: as §1

Assay [4] deals with T4, His-tagged human TROP2 protein (human, UniProt P09758 27-274).
T4 construct: Bought protein; also called hTROP2-His; ACRO Biosystems Cat# TR2-H5223; not shown: His tag
T4 sequence (looked up): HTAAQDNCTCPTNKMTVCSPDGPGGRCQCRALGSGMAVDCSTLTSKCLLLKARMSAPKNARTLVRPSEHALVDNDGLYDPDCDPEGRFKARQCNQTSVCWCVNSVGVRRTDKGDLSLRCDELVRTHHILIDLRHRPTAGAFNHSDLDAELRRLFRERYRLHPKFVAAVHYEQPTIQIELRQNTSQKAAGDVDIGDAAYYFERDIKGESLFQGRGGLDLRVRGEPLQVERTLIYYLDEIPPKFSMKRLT
As to the method: as §1

Assay [5] addresses T5, His-tagged human PTK7 protein (human, UniProt Q13308 31-704).
T5 construct: Bought protein; also called hPTK7-His; not shown: His tag
T5 sequence: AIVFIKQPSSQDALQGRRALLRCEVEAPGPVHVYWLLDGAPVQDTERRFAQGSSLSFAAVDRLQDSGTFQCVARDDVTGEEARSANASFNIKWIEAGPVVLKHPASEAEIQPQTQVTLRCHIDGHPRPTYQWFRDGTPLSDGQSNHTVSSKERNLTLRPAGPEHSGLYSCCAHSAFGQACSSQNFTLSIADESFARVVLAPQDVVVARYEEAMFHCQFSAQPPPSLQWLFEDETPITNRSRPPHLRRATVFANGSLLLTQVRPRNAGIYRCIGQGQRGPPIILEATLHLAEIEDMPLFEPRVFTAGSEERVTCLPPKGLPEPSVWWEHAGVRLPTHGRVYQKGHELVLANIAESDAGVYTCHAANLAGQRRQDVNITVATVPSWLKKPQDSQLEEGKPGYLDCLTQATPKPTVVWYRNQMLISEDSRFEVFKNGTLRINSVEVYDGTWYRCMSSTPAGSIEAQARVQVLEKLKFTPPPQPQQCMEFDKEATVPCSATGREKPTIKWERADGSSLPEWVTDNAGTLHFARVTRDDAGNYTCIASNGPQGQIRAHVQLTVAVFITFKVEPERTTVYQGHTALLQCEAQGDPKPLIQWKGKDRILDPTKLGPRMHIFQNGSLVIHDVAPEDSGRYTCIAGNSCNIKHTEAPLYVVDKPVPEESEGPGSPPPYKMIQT
As to the method:
as §1

B1: 3E6-18E9 (bispecific antibody, V domains shown)
VH 1: QVQLVESGAEVKKPGESLRISCRGSGYSFTSYWISWVRQMPGKGLEWMGRIDPSDSYTKYSPSFQGHVTISADKSISTAYLQWSSLKASDTAMYYCARRDGDYFDFDYWGQGTLVTVSS
VH 2: QLQLQQSGPGLLKPSETLSLTCTVSGGSISSSYYFWGWIRQPPGKGLEWIGAIYYIGNTHYNPSLKSRVTISIDTSKNQFSLNLNSVTAADTAIYYCARYEDTWNWFDPWGQGTLVTVSS
VL: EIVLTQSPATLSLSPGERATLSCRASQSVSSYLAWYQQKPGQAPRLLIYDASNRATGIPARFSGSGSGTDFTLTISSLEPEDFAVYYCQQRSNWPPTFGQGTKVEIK
notes: also called anti-PTK7/TROP2 bispecific antibody 3E6-18E9
Take B1: the Kd – broadly, the concentration at which binding is half-saturated – came to 3.66 nM in assay [1]; 5.2 nM in assay [2]; 16.7 nM in assay [3]; 3.23 nM in assay [4]; 3.14 nM in assay [5]. Also, the koff (in general, the first-order rate constant of dissociation) in assay [1] was found to be 0.00119 s⁻¹; in assay [2] it was 0.000623 s⁻¹; in assay [3], 0.00164 s⁻¹; in assay [4], 0.00116 s⁻¹; in assay [5], 0.000389 s⁻¹. Moreover, the kon (commonly the second-order rate constant of association) in assay [1] worked out at 325000 M⁻¹ s⁻¹; in assay [2], 120000 M⁻¹ s⁻¹; in assay [3] it was 98300 M⁻¹ s⁻¹; in assay [4], 360000 M⁻¹ s⁻¹; in assay [5] it was 124000 M⁻¹ s⁻¹.

B2: 3C4-18F12 (bispecific antibody, V domains shown)
VH 1: QVQLEQSRAEVKKPGESLRISCKGSGYSFTSYWISWVRQMPGKGLEWMGRIDPSDSYTNYNPSFQGHVTISADKSISTAYLQWSSLKASDTAMYYCARRDGSYFDFDYWGQGTLVTVSS
VH 2: QLQLKESGPGLVKPSETLSLTCTVSGGSISYYYWSWIRQPPGMGLEWIGNIYYSGDTNYNPSLRSRVTISIDMSKNQFSLRLNSVTAADTAVYYCARYDMFKWNYEAFDVWGQGTMVTVSS
VL: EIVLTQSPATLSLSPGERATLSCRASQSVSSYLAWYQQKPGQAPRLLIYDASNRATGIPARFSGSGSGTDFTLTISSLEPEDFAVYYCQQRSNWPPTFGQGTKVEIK
notes: also called anti-PTK7/TROP2 bispecific antibody 3C4-18F12
Regarding B2, the Kd in assay [1] was determined as 12.1 nM; in assay [2], 14.8 nM; in assay [3] it was 36.2 nM; in assay [4], 11.2 nM; in assay [5] it was 11.5 nM. Besides, the koff in assay [1] was 0.00252 s⁻¹; in assay [2], 0.00173 s⁻¹; in assay [3] it was 0.00426 s⁻¹; in assay [4] it was 0.0025 s⁻¹; in assay [5], 0.00139 s⁻¹. Also, the kon in assay [1] was 209000 M⁻¹ s⁻¹; in assay [2], 117000 M⁻¹ s⁻¹; in assay [3], 118000 M⁻¹ s⁻¹; in assay [4] it was 224000 M⁻¹ s⁻¹; in assay [5] it was 121000 M⁻¹ s⁻¹.

B3: 3E6-18F12 (bispecific antibody, V domains shown)
VH 1: QVQLVESGAEVKKPGESLRISCRGSGYSFTSYWISWVRQMPGKGLEWMGRIDPSDSYTKYSPSFQGHVTISADKSISTAYLQWSSLKASDTAMYYCARRDGDYFDFDYWGQGTLVTVSS
VH 2: QLQLKESGPGLVKPSETLSLTCTVSGGSISYYYWSWIRQPPGMGLEWIGNIYYSGDTNYNPSLRSRVTISIDMSKNQFSLRLNSVTAADTAVYYCARYDMFKWNYEAFDVWGQGTMVTVSS
VL: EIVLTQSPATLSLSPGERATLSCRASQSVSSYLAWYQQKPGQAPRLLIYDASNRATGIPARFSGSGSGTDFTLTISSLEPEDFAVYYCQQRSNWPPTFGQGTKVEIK
notes: also called anti-PTK7/TROP2 bispecific antibody 3E6-18F12
For B3, the Kd in assay [1] was 13.9 nM; in assay [2], 4.98 nM; in assay [3], 16.4 nM; in assay [4], 13.7 nM; in assay [5] it was 2.43 nM. Further, the koff in assay [1] was 0.00231 s⁻¹; in assay [2] it was 0.000649 s⁻¹; in assay [3], 0.00172 s⁻¹; in assay [4] it was 0.00244 s⁻¹; in assay [5] it was 0.000329 s⁻¹. Also, the kon in assay [1] came to 166000 M⁻¹ s⁻¹; in assay [2] it was 130000 M⁻¹ s⁻¹; in assay [3] it was 105000 M⁻¹ s⁻¹; in assay [4] it was 178000 M⁻¹ s⁻¹; in assay [5], 135000 M⁻¹ s⁻¹.

B4: 3C4-6F7 (bispecific antibody, human IgG1, kappa)
heavy 1: not shown
heavy 2: EVQLVQSGPGLVKPSETLSLTCTVSGGSIDSGYYYWGWIRQPPGKGLEWIGSIYYIGTTYYIPSLKSRVTISVDTSKNRFSLKLTSVTAADTAVYYCARQPITVAGHDAFDIWGQGTMVTVSSASTKGPSVFPLAPSSKSTSGGTAALGCLVKDYFPEPVTVSWNSGALTSGVHTFPAVLQSSGLYSLSSVVTVPSSSLGTQTYICNVNHKPSNTKVDKKVEPKSCDKTHTCPPCPAPELLGGPSVFLFPPKPKDTLMISRTPEVTCVVVDVSHEDPEVKFNWYVDGVEVHNAKTKPREEQYNSTYRVVSVLTVLHQDWLNGKEYKCKVSNKALPAPIEKTISKAKGQPREPQVCTLPPSREEMTKNQVSLSCAVKGFYPSDIAVEWESNGQPENNYKTTPPVLDSDGSFFLVSKLTVDKSRWQQGNVFSCSVMHEALHNHYTQKSLSLSPGK
light: not shown
notes: Knobs-into-holes IgG1 with common light chain; also called anti-PTK7/TROP2 bispecific antibody 3C4-6F7
As for B4, the Kd in assay [1] was determined as 5.94 nM; in assay [2], 17.4 nM; in assay [3] it was 52.5 nM; in assay [4], 10.6 nM; in assay [5], 13.2 nM. The koff was found to be 0.00179 s⁻¹ in assay [1]; 0.00216 s⁻¹ in assay [2]; 0.006 s⁻¹ in assay [3]; 0.00419 s⁻¹ in assay [4]; 0.00152 s⁻¹ in assay [5]. The kon stood at 301000 M⁻¹ s⁻¹ in assay [1]; 124000 M⁻¹ s⁻¹ in assay [2]; 114000 M⁻¹ s⁻¹ in assay [3]; 394000 M⁻¹ s⁻¹ in assay [4]; 115000 M⁻¹ s⁻¹ in assay [5].
